This is an account of results in publication PMC6589784.

Like-named read-outs stand apart in the source and are kept apart here.

Assay [1] addresses Mg-ATP-actin (skeletal muscle actin, assembled into filaments) (rabbit or chicken) (UniProt P68135). Put plainly: single-molecule two-color TIRFM.
The target is the same in assay [2]. Put plainly: single-molecule two-color TIRFM. This is another data set of the same source.
Assay [3] has the same target. Briefly: single-molecule two-color TIRFM. The source holds these as a separate data set.
Assay [4] shares this target. Put plainly: bulk seeded pyrene actin assembly.
The target is the same in assay [5]. Put plainly: single-color TIRFM of actin elongation rates.

In assay [1], MBP-SNAP(549)-EnaΔLΔCC-Foldon registered a processive run length tau, 2-filament trailing barbed ends of 8.9 s and a processive run length tau, 3- or more filament trailing barbed ends of 11.2 s.

In turn, MBP-SNAP(549)-EnaΔLΔCC-GCN4 had a processive run length tau, 2-filament trailing barbed ends in assay [1] of 1.5 s.

Regarding “SNAP(549)-EnaΔL (from UniProt Q8T4F7 1-980) (natural protein)”, in assay [2], the average residence time tau, single filament barbed ends was 8.9 s and the average residence time tau, trailing barbed ends of a two-filament bundle came to 16.8 s. In assay [3], the average processive run length tau, leading barbed ends was determined as 10.1 s and the average processive run length tau, trailing barbed ends stood at 28.1 s. In assay [1], this substance displayed an average processive run length tau, leading barbed ends of 8.4 s; an average processive run length tau, trailing barbed ends of 23.7 s; an average residence time tau, single filament barbed ends of 10 s; an average residence time tau, trailing barbed ends of a two-filament bundle of 21.7 s.

For SNAP(549)-UNC-34 (natural protein), in assay [1], the average residence time tau, single filament barbed ends came out at 1.2 s and the processive run length tau, trailing barbed ends of 2-filament fascin bundles came out at 2.9 s.

As for “SNAP(549)-VASP (from UniProt P50552 1-380) (natural protein)”, in assay [1], the average residence time tau, single filament barbed ends stood at 1 s and the processive run length tau, trailing barbed ends of 2-filament fascin bundles was 2.6 s.

Broadly, the Kd is a measure of binding affinity in units of concentration. Higher therefore signals lower affinity. “unlabeled EnaΔL (from UniProt Q8T4F7 1-980) (natural protein)”: the figures for the Kd in assay [4] and in assay [5] were 0.7 nM and 3.2 nM, respectively.

Turning to unlabeled UNC-34 (natural protein), the dissociation constant Kd in assay [4] is 10.2 nM; in assay [5] it was 6.7 nM.

In the case of “unlabeled VASP (from UniProt P50552 1-380) (natural protein)”, the Kd in assay [4] was found to be 10.8 nM; in assay [5] it was 12.2 nM.
